This is an account of results in patent publication US20050281828A1 (published 2005).

The target in test [1] is T1, recombinant human L-SIGN (L-SIGNFc fusion protein) (human, UniProt Q9H2X3 78-399).
T1 construct: also called DC-SIGNR; human DC-SIGNR; not shown: Fc part of the fusion
T1 sequence (looked up): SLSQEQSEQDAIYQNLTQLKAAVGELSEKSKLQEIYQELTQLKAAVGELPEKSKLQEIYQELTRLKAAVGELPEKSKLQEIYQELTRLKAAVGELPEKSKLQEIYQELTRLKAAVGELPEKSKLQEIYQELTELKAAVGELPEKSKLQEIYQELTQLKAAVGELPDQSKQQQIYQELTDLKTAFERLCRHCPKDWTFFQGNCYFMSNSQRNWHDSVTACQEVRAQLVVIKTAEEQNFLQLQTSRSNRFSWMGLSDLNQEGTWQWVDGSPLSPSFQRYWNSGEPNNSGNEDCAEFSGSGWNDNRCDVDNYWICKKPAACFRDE
The test is described as follows: ELISA, recombinant L-SIGN.

Test [2] concerns the target T2, recombinant human DC-SIGN (human, UniProt Q9NNX6 62-404).
T2 construct: Added to plates coated with anti-human Fc, so probably an Fc fusion
T2 sequence (looked up): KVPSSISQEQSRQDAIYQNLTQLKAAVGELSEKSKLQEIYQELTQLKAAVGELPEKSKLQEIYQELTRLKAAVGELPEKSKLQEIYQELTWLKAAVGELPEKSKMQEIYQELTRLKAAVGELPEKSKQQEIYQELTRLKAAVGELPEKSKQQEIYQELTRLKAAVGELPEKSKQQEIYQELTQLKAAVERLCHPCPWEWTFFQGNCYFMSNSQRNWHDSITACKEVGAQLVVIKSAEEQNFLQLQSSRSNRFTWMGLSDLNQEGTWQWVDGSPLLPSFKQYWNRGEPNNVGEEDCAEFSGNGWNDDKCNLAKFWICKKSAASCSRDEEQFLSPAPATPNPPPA
In words: ELISA, recombinant DC-SIGN. (In general: In an ELISA, binding on a coated surface is turned into a signal by an enzyme label.)

Test [3] has as its target T3, L-SIGN receptor on cells (K562/L-SIGN) (human, UniProt Q9H2X3 1-399).
T3 construct: whole, on cells; also called L-SIGN on LSECs
T3 sequence (looked up): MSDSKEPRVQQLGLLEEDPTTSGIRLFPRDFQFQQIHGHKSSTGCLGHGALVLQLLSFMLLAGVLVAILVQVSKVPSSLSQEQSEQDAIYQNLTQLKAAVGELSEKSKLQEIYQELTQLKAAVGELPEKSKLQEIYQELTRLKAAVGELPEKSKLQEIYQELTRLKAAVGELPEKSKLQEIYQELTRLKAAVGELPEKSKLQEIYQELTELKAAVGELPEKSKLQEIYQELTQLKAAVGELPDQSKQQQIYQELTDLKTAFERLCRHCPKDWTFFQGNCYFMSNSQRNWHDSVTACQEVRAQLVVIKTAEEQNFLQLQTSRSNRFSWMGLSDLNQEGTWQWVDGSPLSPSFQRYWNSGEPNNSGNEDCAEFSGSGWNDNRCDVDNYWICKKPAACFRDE
The test is described as follows: flow cytometry, K562/L-SIGN cells. For orientation: A flow cytometer gives signals particle by particle.

In test [4] the target is T4, DC-SIGN receptor on cells (K562/DC-SIGN) (human, UniProt Q9NNX6 1-404).
T4 construct: whole, on cells
T4 sequence (looked up): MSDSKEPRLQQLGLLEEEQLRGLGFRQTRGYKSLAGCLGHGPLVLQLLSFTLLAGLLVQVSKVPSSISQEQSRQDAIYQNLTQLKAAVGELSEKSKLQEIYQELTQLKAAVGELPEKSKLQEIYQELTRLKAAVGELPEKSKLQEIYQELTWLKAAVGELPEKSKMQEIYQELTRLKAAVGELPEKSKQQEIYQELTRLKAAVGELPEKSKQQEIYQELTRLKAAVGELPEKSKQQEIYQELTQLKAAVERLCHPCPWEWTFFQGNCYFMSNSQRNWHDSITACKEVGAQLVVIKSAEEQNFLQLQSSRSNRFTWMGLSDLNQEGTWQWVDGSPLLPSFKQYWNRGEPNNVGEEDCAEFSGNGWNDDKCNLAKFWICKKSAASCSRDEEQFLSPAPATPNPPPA
The test is described as follows: flow cytometry, K562/DC-SIGN cells.

B1: IgG1k clone A10 (Fab, V domains shown)
VH: EVQLQQSGPELEKPGASVKISCKASGYSFTGYNMNWVKQSNGKSLEWIGNIDPYYGDITYNQKFKGKATLTVDKSSSTAYMQLKSLTSEDSAVYYCARTATALYTMDYWGQGTSVTVSS
VL: EIVLTQSPAIMSASLGERVTMTCTASSSVSSSYLHWYQQKPGSSPKLWIYSTSNLASGVPARFSGSGSGTSYSLTISSMEAEDAATYYCHQYHRSPQTFGGGTKLEIK
notes: phage-Fab screening
As to B1, the OD405 in test [1] was 2.9 OD405; in test [2] it was 0.1 OD405. Further, in test [3], the “Geo. Mean Fluorescence” value worked out at 21.3.

B2: IgG1k clone C7 (phage-Fab screening) (Fab, V domains shown)
VH: EVQLQQSGPELEKPGASVKISCKASGYSFTGYNMNWVKQSSGKSLEWIGNFDPYYGVITYNQKFKGKATLTVDKSSSTAYMQLKSLTSEDSAVYYCARTATALYTMDYWGQGTSVTVSS
VL: EIVLTQSPAIMSASPGEKVTMTCRASSSVSSSYLHWYQQKSGASPKLWIYSTSNLASGVPARFSGSGSGTSYSLTISSVEAEDAATYYCQQYSGYPLTFGSGTKLEIK
Regarding B2, the OD405 in test [1] was 3.5 OD405; in test [2], 0.1 OD405. The “Geo. Mean Fluorescence” value in test [3] came to 101.

B3: IgG1k clone B7 (Fab, V domains shown)
VH: EVQLQQSGPELEKPGASVKISCKASGYSFTGYNMNWVKQSSGKSLEWIGNFDPYYGVITYNQKFKGKATLTVDKSSSTAYMQLKSLTSEDSAVYYCARTATALYTMDYWGQGTSVTVSS
VL: EIVLTQSPAIMSASPGEKVTMTCRASSSVSSSYLHWYQQKSGASPKLWIYSTSNLASGVPARFSGSGSGTSYSLTISSVEAEDAATYYCQQYSGYPLTFGSGTKLEIK
notes: phage-Fab screening
On to B3, for which the OD405 in test [1] was found to be 2.7 OD405; in test [2], 0.1 OD405. Besides, the “Geo. Mean Fluorescence” value in test [3] worked out at 90.9.

B4: L-SIGN Fab clone C7 (soluble, purified) (Fab, V domains shown)
VH: EVQLQQSGPELEKPGASVKISCKASGYSFTGYNMNWVKQSSGKSLEWIGNFDPYYGVITYNQKFKGKATLTVDKSSSTAYMQLKSLTSEDSAVYYCARTATALYTMDYWGQGTSVTVSS
VL: EIVLTQSPAIMSASPGEKVTMTCRASSSVSSSYLHWYQQKSGASPKLWIYSTSNLASGVPARFSGSGSGTSYSLTISSVEAEDAATYYCQQYSGYPLTFGSGTKLEIK
B4: in test [4], the binding result is “no binding (tested: 20 ug/ml)”.

B5: IgG1k clone D8 (Fab, V domains shown)
VH: EVQLQQSGPELEKPGASVKISCKASGYSFTGYNMNWVKQSNGKSLEWIGNIDPYYGGSSYNQKFKGKATLTVDKSSSTAYMQLKSLTSEDSAVYYCARTATALYTMDYWGQGTSVTVSS
VL: EIVLTQSPAIMSASPGEKVTMTCRASSSVSSSYLHWYQQKSGASPKLWIYSTSNLASGVPARFSGSGSGTSYSLTISSVEAEDAATYYCQQYSGYPGTFGGGTKLEIK
notes: phage-Fab screening
Take B5: the OD405 in test [1] came out at 2.1 OD405; in test [2], 0.1 OD405. For the same molecule, in test [3], the “Geo. Mean Fluorescence” value was determined as 17.3.
